# What was measured:
# [1] = target: human FcγRIIIa (F158 allele) (human) (UniProt P08637)
# [2] = target: human FcγRIIIa (V158 allele) (human) (UniProt P08637)
# [3] = target: human FcγRIIa (H131 allele) (human) (UniProt P12318)
# human FcγRIIb (human) [4] = target: human FcγRIIb (human) (UniProt P31994)
# human C1q (human) [5] = target: human C1q (human) (UniProt P02745); test: MSD
# human FcRn (human) [6] = target: human FcRn (human) (UniProt P55899); test: MSD
# [7] = target: human FcγRIIIa (F158 allele) (human) (UniProt P08637); test: MSD
# [8] = target: human FcγRIIIa (V158 allele) (human) (UniProt P08637); test: MSD
# human FcγRIIIb (human) [9] = target: human FcγRIIIb (human) (UniProt O75015); test: MSD
# Sequence of human FcγRIIIb (human) (O75015 17-200 limits assumed): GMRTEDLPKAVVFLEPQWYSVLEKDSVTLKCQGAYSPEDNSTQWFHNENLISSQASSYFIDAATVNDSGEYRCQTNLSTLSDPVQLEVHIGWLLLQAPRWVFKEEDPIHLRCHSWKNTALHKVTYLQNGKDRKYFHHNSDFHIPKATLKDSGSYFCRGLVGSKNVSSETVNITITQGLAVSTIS
# [10] = target: human FcγRIIa (H131 allele) (human) (UniProt P12318); test: MSD
# [11] = target: human FcγRIIa (R131 allele) (human) (UniProt P12318); test: MSD
# Sequence of human FcγRIIa (R131 allele) (human) (P12318 34-218 H167R limits assumed): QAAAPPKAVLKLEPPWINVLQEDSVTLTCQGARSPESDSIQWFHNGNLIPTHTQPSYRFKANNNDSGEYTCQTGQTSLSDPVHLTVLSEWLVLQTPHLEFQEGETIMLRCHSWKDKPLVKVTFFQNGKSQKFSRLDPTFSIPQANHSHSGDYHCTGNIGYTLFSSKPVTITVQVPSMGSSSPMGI
# human FcγRIIb (human) [12] = target: human FcγRIIb (human) (UniProt P31994); test: MSD
# human C1q (human) [13] = target: human C1q (human) (UniProt P02745); test: MSD [cont'd]
# human FcRn (human) [14] = target: human FcRn (human) (UniProt P55899); test: MSD [cont'd]
# [15] = target: human FcγRIIIa (F158 allele) (human) (UniProt P08637); test: MSD [cont'd]
# [16] = target: human FcγRIIIa (V158 allele) (human) (UniProt P08637); test: MSD [cont'd]
# human FcγRIIIb (human) [17] = target: human FcγRIIIb (human) (UniProt O75015); test: MSD [cont'd]
# [18] = target: human FcγRIIa (H131 allele) (human) (UniProt P12318); test: MSD [cont'd]
# [19] = target: human FcγRIIa (R131 allele) (human) (UniProt P12318); test: MSD [cont'd]
# human FcγRIIb (human) [20] = target: human FcγRIIb (human) (UniProt P31994); test: MSD [cont'd]
# human FcRn (human) [21] = target: human FcRn (human) (UniProt P55899); test: MSD, pH 6 [cont'd]
# [22] = target: human FcγRIIa (H131 allele) (human) (UniProt P12318); test: Table B summary, vs fucosylated wild-type human IgG1
# [23] = target: human FcγRIIa (R131 allele) (human) (UniProt P12318); test: as above
# Sequence of human FcγRIIIa (V158 allele) (human) (P08637 17-208 F176V limits assumed): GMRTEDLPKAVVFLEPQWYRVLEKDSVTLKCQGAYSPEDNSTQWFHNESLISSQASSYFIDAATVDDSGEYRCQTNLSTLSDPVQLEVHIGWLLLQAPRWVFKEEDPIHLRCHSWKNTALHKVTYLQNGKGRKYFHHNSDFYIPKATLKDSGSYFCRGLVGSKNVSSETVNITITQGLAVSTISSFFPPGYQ
# Sequence of human FcγRIIa (H131 allele) (human) (P12318 34-218 limits assumed): as the sequence (P12318 34-218 H167R limits assumed) above, with R134H counted along it
# Sequence of human FcγRIIb (human) (P31994 43-217 limits assumed): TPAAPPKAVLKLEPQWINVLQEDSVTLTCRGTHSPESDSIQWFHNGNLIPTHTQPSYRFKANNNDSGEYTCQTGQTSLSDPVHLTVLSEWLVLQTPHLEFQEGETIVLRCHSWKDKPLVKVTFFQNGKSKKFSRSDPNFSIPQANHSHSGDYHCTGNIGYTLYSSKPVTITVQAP
# Sequence of human FcRn (human) (P55899 24-297 limits assumed, chain 1 of 2): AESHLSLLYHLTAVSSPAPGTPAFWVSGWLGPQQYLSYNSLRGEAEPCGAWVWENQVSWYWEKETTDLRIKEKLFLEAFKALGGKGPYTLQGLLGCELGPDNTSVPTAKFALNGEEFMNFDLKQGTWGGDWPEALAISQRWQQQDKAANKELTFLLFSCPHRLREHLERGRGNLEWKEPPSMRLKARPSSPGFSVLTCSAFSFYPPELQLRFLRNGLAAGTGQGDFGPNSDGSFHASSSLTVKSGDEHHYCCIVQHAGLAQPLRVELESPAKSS
# Sequence of human FcRn (human) (chain, as listed by the source limits assumed, chain 2 of 2): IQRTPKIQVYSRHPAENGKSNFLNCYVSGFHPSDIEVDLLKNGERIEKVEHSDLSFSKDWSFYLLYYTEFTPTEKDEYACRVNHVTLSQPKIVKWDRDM
# Sequence of human C1q (human) (P02745 23-245 limits assumed, chain 1 of 3): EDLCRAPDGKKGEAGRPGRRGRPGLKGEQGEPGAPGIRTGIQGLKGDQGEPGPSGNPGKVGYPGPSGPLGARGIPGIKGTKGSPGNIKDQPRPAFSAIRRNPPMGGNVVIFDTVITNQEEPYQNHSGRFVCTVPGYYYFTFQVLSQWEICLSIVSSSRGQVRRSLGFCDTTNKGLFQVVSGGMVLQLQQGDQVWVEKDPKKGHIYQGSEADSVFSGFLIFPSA
# Sequence of human C1q (human) (P02746 28-253 limits assumed, chain 2 of 3, further chain): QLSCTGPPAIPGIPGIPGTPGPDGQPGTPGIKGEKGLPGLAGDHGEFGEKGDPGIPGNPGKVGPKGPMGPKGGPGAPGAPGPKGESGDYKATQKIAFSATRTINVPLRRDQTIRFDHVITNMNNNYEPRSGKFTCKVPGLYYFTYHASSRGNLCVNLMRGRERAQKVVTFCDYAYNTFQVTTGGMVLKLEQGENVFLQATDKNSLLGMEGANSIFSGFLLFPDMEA
# Sequence of human C1q (human) (P02747 29-245 limits assumed, chain 3 of 3, further chain): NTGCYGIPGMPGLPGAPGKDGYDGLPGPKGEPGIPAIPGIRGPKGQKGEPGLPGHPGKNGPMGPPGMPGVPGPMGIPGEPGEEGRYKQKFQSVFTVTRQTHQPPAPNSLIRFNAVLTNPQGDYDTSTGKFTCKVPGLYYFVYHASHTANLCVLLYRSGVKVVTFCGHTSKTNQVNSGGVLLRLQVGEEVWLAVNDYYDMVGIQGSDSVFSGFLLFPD
# Sequence of human FcγRIIIa (F158 allele) (human) (P08637 17-208 limits assumed): as the sequence (P08637 17-208 F176V limits assumed) above, with V160F counted along it
substance,measurement,setting,value
IgG1 antibody with Fc variant G236A_R292P_Y300L,"FcγR reporter signaling, fold-change vs wt [cont'd]",[1],6.15 fold
same,"FcγR reporter signaling, fold-change vs wt [cont'd]",[2],2.83 fold
same,"FcγR reporter signaling, fold-change vs wt [cont'd]",[3],1.87 fold
same,"FcγR reporter signaling, fold-change vs wt [cont'd]",human FcγRIIb (human) [4],1.01 fold
same,fold-change vs FY1 rIgG1m3,human C1q (human) [5],1.01 fold
same,fold-change vs FY1 rIgG1m3,human FcRn (human) [6],0.8 fold
same,fold-change vs FY1 rIgG1m3,[7],3.7 fold
same,fold-change vs FY1 rIgG1m3,[8],2.7 fold
same,fold-change vs FY1 rIgG1m3,human FcγRIIIb (human) [9],1.03 fold
same,fold-change to WT Fc,[10],14.2 fold
same,fold-change vs FY1 rIgG1m3,[10],14.2 fold
same,fold-change to WT Fc,[11],2.71 fold
same,fold-change vs FY1 rIgG1m3,[11],2.7 fold
same,fold-change to WT Fc,human FcγRIIb (human) [12],0.94 fold
same,fold-change vs FY1 rIgG1m3,human FcγRIIb (human) [12],0.9 fold
same,fold-change to WT Fc,human C1q (human) [13],1.01 fold
same,fold-change vs wt,human C1q (human) [13],1.01 fold
same,fold-change vs wt,human FcRn (human) [14],0.83 fold
same,fold-change to WT Fc,[15],3.71 fold
same,fold-change vs wt,[15],3.71 fold
same,fold-change to WT Fc,[16],2.69 fold
same,fold-change vs wt,[16],2.69 fold
same,fold-change vs wt,human FcγRIIIb (human) [17],1.03 fold
same,fold-change vs wt,[18],14.2 fold
same,fold-change vs wt,[19],2.71 fold
same,fold-change vs wt,human FcγRIIb (human) [20],0.94 fold
same,fold-change to WT Fc,human FcRn (human) [21],0.828 fold
same,fold-change in binding vs fucosylated wild-type human IgG1,[22],14 fold
same,fold-change in binding vs fucosylated wild-type human IgG1,[23],2.7 fold

# Reference: US20260184814A1, “BROADLY NE[…] INFLUENZA NEURAMINIDASE” (priority 2022, published 2026)
